Source: publication doi:10.1101/824458 (bioRxiv, 2019)

B1: VAP-33-ΔC20 (recombinant human VAP-33 protein, residues 1-227) (domain or fragment, UniProt Q9P0L0 1-227, looked up)
chain: MASASGAMAKHEQILVLDPPTDLKFKGPFTDVVTTNLKLRNPSDRKVCFKVKTTAPRRYCVRPNSGIIDPGSTVTVSVMLQPFDYDPNEKSKHKFMVQTIFAPPNTSDMEAVWKEAKPDELMDSKLRCVFEMPNENDKLNDMEPSKAVPLNASKQDGPMPKPHSVSLNDTETRKLMEECKRLQGEMMKLSEENRHLRDEGLRLRKVAHSDKPGSTSTASFRDNVTSP
B2: viperin-ΔN50 (residues 50-361), recombinant, C-terminal His6-tagged, iron-sulfur cluster reconstituted (domain or fragment, human, UniProt Q8WXG1 50-361, looked up)
chain: QLVLRGPDETKEEEEDPPLPTTPTSVNYHFTRQCNYKCGFCFHTAKTSFVLPLEEAKRGLLLLKEAGMEKINFSGGEPFLQDRGEYLGKLVRFCKVELRLPSVSIVSNGSLIRERWFQNYGEYLDILAISCDSFDEEVNVLIGRGQGKKNHVENLQKLRRWCRDYRVAFKINSVINRFNVEEDMTEQIKALNPVRWKVFQCLLIEGENCGEDALREAERFVIGDEEFERFLERHKEVSCLVPESNQKMKDSYLILDEYMRFLNCRKGRKDPSKSILDVGVEEAIKFSGFDEKMFLKRGGKYIWSKADLKLDW

How the values were obtained:
[1] = target: NS5A-ΔN39 (residues 39-447), recombinant, lacking the membrane-binding amphipathic helix (hepatitis C virus) (UniProt Q9WMX2); test: cross-linking
cross-linking = target: the molecule itself; test: cross-linking

Molecule	stoichiometry N [1]	stoichiometry N (cross-linking)
NS5A-ΔN39 (residues 39-447), recombinant, lacking the membrane-binding amphipathic helix (from UniProt Q9WMX2 40-448) (domain or fragment)	2	
B1		2
B2		2
